In series [1] the target is T1, Int82N (Enterococcus faecalis, UniProt Q7BP35 82-397).
T1 sequence: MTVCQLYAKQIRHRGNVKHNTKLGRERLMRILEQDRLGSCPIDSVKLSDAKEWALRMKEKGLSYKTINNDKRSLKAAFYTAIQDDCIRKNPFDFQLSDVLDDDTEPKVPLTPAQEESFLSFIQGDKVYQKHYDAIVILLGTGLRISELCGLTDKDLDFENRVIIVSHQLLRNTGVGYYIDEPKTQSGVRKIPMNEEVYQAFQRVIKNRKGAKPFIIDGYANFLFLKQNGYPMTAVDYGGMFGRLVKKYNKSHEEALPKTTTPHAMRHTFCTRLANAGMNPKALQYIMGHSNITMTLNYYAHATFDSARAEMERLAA
The experiment in a line: X-ray crystallography; wild-type catalytic residues; […] (50 mM HEPES pH 7.5, 250 mM NaCl, 5 mM DTT, 10% glycerol), […]. The settings on record: protein: recombinant; tags: 6xHis-SUMO removed by SenP2; extra N-terminal S81; chain copies: 2; label: 5'-32P in EMSA; none in crystals; 44 bp; terminal T/T mismatch as printed. In general terms: Mobility shift assays separate free from complexed probe on a gel.

The next series addresses 390C (Enterococcus faecalis, UniProt Q7BP35 82-390). Kind of series: EMSA; monomeric and higher oligomers; […] (50 mM HEPES pH 7.5, 250 mM NaCl, 5 mM DTT, 10% glycerol), […]. The settings on record: protein: recombinant; tags: 6xHis-SUMO removed by SenP2; label: 5'-32P in EMSA; none in crystals; 44 bp; terminal T/T mismatch as printed.
The next series deals with 381C (Enterococcus faecalis, UniProt Q7BP35 82-381). The series is described as above. The settings on record: protein: recombinant; tags: 6xHis-SUMO removed by SenP2; label: 5'-32P in EMSA; none in crystals; 44 bp; terminal T/T mismatch as printed.
The target in the next series is T2, Int82N(R225K) (Enterococcus faecalis, UniProt Q7BP35 82-397, R225K).
T2 sequence: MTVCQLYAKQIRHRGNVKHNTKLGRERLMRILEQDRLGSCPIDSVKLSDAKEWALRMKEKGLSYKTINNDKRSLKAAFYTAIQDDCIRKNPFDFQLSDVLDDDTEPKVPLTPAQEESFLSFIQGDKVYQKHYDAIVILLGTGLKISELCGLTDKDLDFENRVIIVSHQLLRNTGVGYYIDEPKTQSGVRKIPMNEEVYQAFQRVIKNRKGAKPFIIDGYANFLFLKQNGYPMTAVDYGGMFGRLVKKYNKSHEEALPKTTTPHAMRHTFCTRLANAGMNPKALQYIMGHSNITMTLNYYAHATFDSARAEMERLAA
Kind of series: X-ray crystallography; 2 protein:1 DNA; […] (50 mM HEPES pH 7.5, 250 mM NaCl, 5 mM DTT, 10% glycerol), […]. The settings on record: protein: recombinant, tags: 6xHis-SUMO removed by SenP2, extra N-terminal S81, chain copies: 2, terminal T/T mismatch as printed.

The target in series [2] is T1, Int82N. The experiment in a line: 2AP fluorescence; base-flipping readout; […] (50 mM HEPES pH 7.5, 250 mM NaCl, 5 mM DTT, 10% glycerol), […]. Conditions: protein: recombinant; tags: 6xHis-SUMO removed by SenP2; extra N-terminal S81; chain copies: 2; label: 2AP; 44 nt strands; 2AP opposite C at one flipped base; terminal T/T mismatch.
Series [3] addresses T1, Int82N. Kind of series: EMSA; 2:1 complex; similar affinity to CI5; […] (50 mM HEPES pH 7.5, 250 mM NaCl, 5 mM DTT, 10% glycerol), […]. Conditions: protein: recombinant; tags: 6xHis-SUMO removed by SenP2; extra N-terminal S81; chain copies: 2; 45 bp; terminal T/T mismatch as printed.
In the next series the target is T3, Int82N(Y379F) (Enterococcus faecalis, UniProt Q7BP35 82-397, Y379F).
T3 sequence: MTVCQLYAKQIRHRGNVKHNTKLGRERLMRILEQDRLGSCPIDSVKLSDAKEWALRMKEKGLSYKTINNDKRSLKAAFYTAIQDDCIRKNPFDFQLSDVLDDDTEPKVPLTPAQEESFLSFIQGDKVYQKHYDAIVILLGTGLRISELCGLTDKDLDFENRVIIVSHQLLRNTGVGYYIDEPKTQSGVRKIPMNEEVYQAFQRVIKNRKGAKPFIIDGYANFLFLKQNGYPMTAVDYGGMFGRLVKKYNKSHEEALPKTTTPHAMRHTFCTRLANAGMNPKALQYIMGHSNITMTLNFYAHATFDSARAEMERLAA
Kind of series: X-ray crystallography; […] (50 mM HEPES pH 7.5, 250 mM NaCl, 5 mM DTT, 10% glycerol), […]. Conditions: protein: recombinant; tags: 6xHis-SUMO removed by SenP2; 5' overhang 6 nt.

Series [4] concerns the molecule itself. The experiment in a line: crystal structure; Int^82N (R225K or wild type) with 44 bp CI5 dsDNA at 2:1 molar ratio in Buffer C; vapor diffusion at 20°C; 2.8 Å.
Series [5] concerns the molecule itself. The experiment in a line: SEC; analytical size exclusion chromatography on Superdex 200 10/300, proteins without DNA. (In general: Size exclusion chromatography separates by hydrodynamic size, large species first.)
In series [6] the target is T4, Int82N (HJ-bound tetramer) (Enterococcus faecalis, UniProt Q7BP35 82-397).
T4 sequence: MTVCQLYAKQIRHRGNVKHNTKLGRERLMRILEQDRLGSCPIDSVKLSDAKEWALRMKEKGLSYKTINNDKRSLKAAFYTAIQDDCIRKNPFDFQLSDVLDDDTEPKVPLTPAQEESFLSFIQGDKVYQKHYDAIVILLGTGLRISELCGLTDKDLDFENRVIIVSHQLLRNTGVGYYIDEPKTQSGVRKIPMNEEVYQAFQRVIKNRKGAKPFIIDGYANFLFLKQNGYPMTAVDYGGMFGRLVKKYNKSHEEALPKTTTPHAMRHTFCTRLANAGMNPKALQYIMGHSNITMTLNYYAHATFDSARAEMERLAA
Kind of series: EMSA; 4:1 protein:HJ; […] (50 mM HEPES pH 7.5, 250 mM NaCl, 5 mM DTT, 10% glycerol), […]. The settings on record: protein: recombinant; tags: 6xHis-SUMO removed by SenP2; chain copies: 4; four-way junction of 4 strands.

B1: CI5 (dsDNA)
DNA 1: TGCGATAACCTAAAATTTTATAGCAAAATTATATGGGATTTTAG
DNA 2: CTAAAATCCCATATAATTTTGCTATAAAATTTTAGGTTATCGCT
For the molecule B1, the binding result with Int82N [1] is given as “binds”; in the series with 390C, “binds”; in the series with 381C, “binds”; in the series with Int82N(R225K) (label: 5'-32P in EMSA, none in crystals, 44 bp), “binds”.

B2: CI5-F (dsDNA)
DNA 1: TGCGATAACCTAAAATTTTTTAGAAAAATTATATGGGATTTTAG
DNA 2: CTAAAATCCCATATAATTTTCCTAAAAAATTTTAGGTTATCGCT
modifications: 2-aminopurine (written A) at position 24 of top and 25 of bottom strand
For B2, in the series with Int82N [2], the binding signal was ~4.6 fold 2AP fluorescence increase.

B3: CI6a (dsDNA)
DNA 1: TGCGATAACCTAAAATTTTATTTTCAAAATTATATGGGATTTTAG
DNA 2: CTAAAATCCCATATAATTTTGAAAATAAAATTTTAGGTTATCGCT
Take B3: the binding result with Int82N [3] and in the series with Int82N(R225K) (45 bp) was “binds” throughout.

B4: CI6b (dsDNA)
DNA 1: TGCGATAACCTAAAATTTTCCCTTTAAAATTATATGGGATTTTAG
DNA 2: CTAAAATCCCATATAATTTTAAAGGGAAAATTTTAGGTTATCGCT
B4: the binding result with Int82N [3] and in the series with Int82N(R225K) (45 bp) was “binds” in each case.

B5: IRR half-site (dsDNA)
DNA 1: ATTTTCAAAATTATGGGATTTTAG
DNA 2: CTAAAATCCCATATAATTTT
As to B5, the binding result with Int82N(Y379F) was “binds”.

B6: Int^82N(R225K), catalytic mutant of Tn1549 Int aa 82–397 (domain or fragment, Enterococcus faecalis)
chain: SMTVCQLYAKQIRHRGNVKHNTKLGRERLMRILEQDRLGSCPIDSVKLSDAKEWALRMKEKGLSYKTINNDKRSLKAAFYTAIQDDCIRKNPFDFQLSDVLDDDTEPKVPLTPAQEESFLSFIQGDKVYQKHYDAIVILLGTGLKISELCGLTDKDLDFENRVIIVSHQLLRNTGVGYYIDEPKTQSGVRKIPMNEEVYQAFQRVIKNRKGAKPFIIDGYANFLFLKQNGYPMTAVDYGGMFGRLVKKYNKSHEEALPKTTTPHAMRHTFCTRLANAGMNPKALQYIMGHSNITMTLNYYAHATFDSARAEMERLAA
notes: additional residue S81 left after SenP2 cleavage of the purification tags; Tn1549 integrase (Int), Enterococcus faecalis, GenBank AAF72368.1, aa 82-397, with R225K; Crystallised with CI5, CI6a and CI6b DNA; also called R225K Int^82N; not shown: His6, N-terminal, cleaved; SUMO, N-terminal, cleaved
Consider B6, for which the binding result in series [4] is on record as “binds”.

B7: Tn1549 Int variant lacking the AB domain (aa 82–397; Int^82N), wild type (domain or fragment, Enterococcus faecalis)
chain: SMTVCQLYAKQIRHRGNVKHNTKLGRERLMRILEQDRLGSCPIDSVKLSDAKEWALRMKEKGLSYKTINNDKRSLKAAFYTAIQDDCIRKNPFDFQLSDVLDDDTEPKVPLTPAQEESFLSFIQGDKVYQKHYDAIVILLGTGLRISELCGLTDKDLDFENRVIIVSHQLLRNTGVGYYIDEPKTQSGVRKIPMNEEVYQAFQRVIKNRKGAKPFIIDGYANFLFLKQNGYPMTAVDYGGMFGRLVKKYNKSHEEALPKTTTPHAMRHTFCTRLANAGMNPKALQYIMGHSNITMTLNYYAHATFDSARAEMERLAA
notes: additional residue S81 left after SenP2 cleavage of the purification tags; Tn1549 integrase (Int), Enterococcus faecalis, GenBank AAF72368.1, aa 82-397 (CB and CAT domains, no AB domain); full length is aa 1-397; Codon-optimised synthetic gene in pETM28 (BamHI/XhoI); also called Int^82N(wt); Tn1549 integrase; not shown: His6, N-terminal, cleaved; SUMO, N-terminal, cleaved
Turning to B7, in series [5], the “stoichiometry N” value was determined as 2.

B8: HJ (EMSA) (structured_DNA)
DNA 1: AGTGAACAGCCCACAAAATTTTGAAAATAAAATTTTAGGTTATCGCTGGCTAGTCCATGC
DNA 2: GCATGGACTAGCCAGCGATAACCTAAAATTTTATTAATAAAATTATATGGGATTT
DNA 3: CCAAATTTTTTACCGGGTTTTGAATTCAAAATTTTGTGGGCTGTTCACT
DNA 4: AAATCCCATATAATTTTATTTTCAAAACCCGGTAAAAAATTTGG
For B8, the binding result in series [6] is listed as “binds”.

Usually stoichiometry N stands for the number of molecules, sites or subunits per partner or assembly.

The values are drawn from PMC5871717, “Transposase-DNA Complex Structures Reveal Mechanisms for Conjugative Transposition of Antibiotic Resistance” (Cell, 2018).
